Experimental data reported in US20260029420A1, “ANTI-CB2 ANTIBODIES AND THEIR USE IN A FLOW CYTOMETRY ASSAY TO MEASURE CELL SURFACE CB2 EXPRESSION” (Hoffmann-La Roche Inc., priority 2022, published 2026).

Assays:
CHO-A2 mCB2 = target: T1, CHO-A2 mCB2 (Mus musculus, UniProt P47936); assay: Immunofluorescence on methanol-fixed transfected cells; type: binding; parameters: key to immunofluorescence signal intensity: “−” no fluorescence detected; “+”-“++++” intensity of fluorescent signal; “+”-“++++” intensity of fluorescent signal; “+”-“++++” intensity of fluorescent signal; “+”-“++++” intensity of fluorescent signal
T1 construct: expressed in transfected cells
Method: (§1) The positive clones (Table 1) were further characterized by immunofluorescence (IF; Table 2), Western Blot (Table 3, 1) and Immune precipitation (Table 4, 2) on full length hCB2, hCB1, mCB2 stable-transfected CHO-cell lines in addition to the 2 pANITA constructs.
(§2) For IF analysis, methanol-fixed cells were incubated for 20 min in a humid chamber at 37° C. with the respective hCB2 and mCB2 clones. After rinsing twice and washing for 15 min in PBS, 125 μg/ml FITC-conjugated […] anti-mouse IgG antibodies (RAM/IgG (H+L)/FITC, Nordic
(§3) Immunological Laboratories) diluted in PBS was added and incubated for 20 min in a humid chamber at 37° C. Cells were rinsed twice and washed for 15 min in PBS, mounted with mounting solution (50% PBS 50% glycerol) and covered with a coverslip. Staining was assessed by fluorescence microscopy on a Leica CTR500 fluorescence microscope and a Leica DFC300 FX digital camera.

CHODukx CRE hCB1 Cl.20 = target: T2, CHODukx CRE hCB1 Cl.20 (Homo sapiens, UniProt P21554); assay: as above; type: binding; parameters: key to immunofluorescence signal intensity: “−” no fluorescence detected; “+”-“++++” intensity of fluorescent signal; “+”-“++++” intensity of fluorescent signal; “+”-“++++” intensity of fluorescent signal; “+”-“++++” intensity of fluorescent signal
T2 construct: expressed in transfected cells
Method: as §1, §2, §3

CHODukx CRE hCB2 Cl.90 = target: T3, CHODukx CRE hCB2 Cl.90 (Homo sapiens, UniProt P34972); assay: as above; type: binding; parameters: key to immunofluorescence signal intensity: “−” no fluorescence detected; “+”-“++++” intensity of fluorescent signal; “+”-“++++” intensity of fluorescent signal; “+”-“++++” intensity of fluorescent signal; “+”-“++++” intensity of fluorescent signal
T3 construct: expressed in transfected cells
Method: as §1, §2, §3

CHO K1 h CB2 cell line = target: T4, CHO K1 h CB2 cell line (Homo sapiens, UniProt P34972); assay: Flow cytometry with increasing antibody levels on CHO K1 cells; type: binding; details: 0.1, 1 or 10 μg/ml antibody; CHO K1 hCB2
T4 construct: expressed in transfected cells; host or cells: CHO K1
From the text: (§4) FIG. 3: Analysis of the specificity of the anti hCB2 antibody 1/622 for hCB2. Flow cytometric analysis with increasing concentrations of hCB2 antibody 1/622 in CHO cells transfected with hCB2 (light brick) and hCB1 (dark brick). Untransfected CHO cells (black) serve as a negative control. For detection an F(ab)2 goat-anti Mouse IgG3 PE antibody was used.
(§5) Further evidence for the specificity of the anti-human CB2 antibody 1/622 was generated by flow cytometry experiments using increasing levels of the antibody on untransfected, hCB1 or hCB2 transfected CHO K1.
(§6) The cells were washed 1× with 1× DPBS without CaCl2 and MgCl2 (Gibco, #14190-094). Accutase (Sigma, #A6964) was added and the cell were placed back in the incubator. Once the cells had detached, they were collected in a Falcon tube containing DMEM high glucose+GlutaMAX (Gibco, #31966-021) and 10% heat inactivated FBS (Gibco, #16140-071). Cells were centrifuged for 5 minutes at 250×g and 4° C. and the cell pellet was resuspended in cell staining buffer (BioLegend, #420201) and put them on ice until further usage. The cells were incubated with 0.1, 1 or 10 μg/ml hCB2-1/622 antibody and incubated for 30 minutes at 4° C. After the incubation, the tubes were centrifuged for 5 minutes with 250×g and 4° C. The supernatant was removed completely, cells were washed two times with cold cell staining buffer and supernatant removed completely after the centrifugation. Human FcR Blocking Reagent (Miltenyi Biotech, Cat #130-059-901) was diluted according to the package insert instructions with cold cell staining buffer. To each sample 50 μl was added, mixed and incubated for 10 minutes at 4° C. The secondary antibody Goat F(ab′)2 Anti-Mouse IgG3 PE (Southern Biotech, Cat #1102-09) was diluted 1:25 in cold cell staining buffer. To each sample 50 μl was added, mixed and incubated for 30 minutes at 4° C. in the dark. After the incubation cells were washed 2× with cold cell staining buffer and supernatant removed completely after centrifugation. […]

CHO K1 hCB1R = target: T5, CHO K1 hCB1R (Homo sapiens, UniProt P21554); assay: as above; type: binding; details: 0.1, 1 or 10 μg/ml antibody
T5 construct: expressed in transfected cells; host or cells: CHO K1
From the text: as §4, §5, §6

[1] = system: untransfected CHO K1 controls; assay: as above; type: binding; details: 0.1, 1 or 10 μg/ml antibody
From the text: as §4, §5, §6

[2] = Storage stability of antibody working dilution; type: physicochemical; details: working dilution (5 μg/sample), on ice
Method: FIG. 12: Single dose in vivo study monitoring the pharmacodynomic effect of RG7774 on CB2 expression on B-cells in Cynomolgus upon oral dosing. Three healthy cynomolgus monkeys were dosed with 100 mg/kg of the CB2 agonist RG7774. The blood draw at different time points was followed by the incubation with the anti-human CB2 antibody 1/622. The expression of CB2 on the surface of B-cells was analyzed using a lineage marker mix specific for B-cells and T-cells. The B/T-cell CB2 MFI ratio was calculated and normalized to baseline. 0 μM served as 100% baseline receptor expression. […] Due to a storage effect of the antibody working dilution (5 μg/sample) of the anti-human CB2 Ab 1/622 the 4 and 7 hours' time point have been excluded. The working dilution of this antibody is only stable for 2 hours on ice.

T2 sequence (P21554 whole entry): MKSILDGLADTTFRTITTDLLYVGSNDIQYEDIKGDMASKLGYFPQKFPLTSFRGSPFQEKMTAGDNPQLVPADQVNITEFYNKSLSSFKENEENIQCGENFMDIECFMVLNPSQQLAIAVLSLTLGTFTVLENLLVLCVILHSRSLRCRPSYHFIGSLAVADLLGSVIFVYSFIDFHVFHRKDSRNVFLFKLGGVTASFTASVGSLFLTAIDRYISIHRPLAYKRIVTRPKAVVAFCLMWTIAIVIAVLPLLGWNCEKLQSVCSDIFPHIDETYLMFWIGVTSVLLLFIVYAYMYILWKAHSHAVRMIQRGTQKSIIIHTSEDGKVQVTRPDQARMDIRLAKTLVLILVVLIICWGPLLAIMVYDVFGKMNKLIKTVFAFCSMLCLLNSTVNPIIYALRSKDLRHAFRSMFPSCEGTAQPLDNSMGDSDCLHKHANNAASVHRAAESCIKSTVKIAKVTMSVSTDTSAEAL
T3 sequence (P34972 whole entry): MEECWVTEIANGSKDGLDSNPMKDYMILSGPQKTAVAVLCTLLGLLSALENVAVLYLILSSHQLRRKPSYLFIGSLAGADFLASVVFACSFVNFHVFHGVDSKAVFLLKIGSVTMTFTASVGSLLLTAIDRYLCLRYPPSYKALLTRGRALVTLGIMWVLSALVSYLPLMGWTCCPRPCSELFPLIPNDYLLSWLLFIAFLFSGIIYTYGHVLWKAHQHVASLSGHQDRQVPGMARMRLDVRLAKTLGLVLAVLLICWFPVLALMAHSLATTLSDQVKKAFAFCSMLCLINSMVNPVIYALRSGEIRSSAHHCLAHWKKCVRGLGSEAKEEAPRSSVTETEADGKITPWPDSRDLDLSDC
T1 sequence (P47936 whole entry): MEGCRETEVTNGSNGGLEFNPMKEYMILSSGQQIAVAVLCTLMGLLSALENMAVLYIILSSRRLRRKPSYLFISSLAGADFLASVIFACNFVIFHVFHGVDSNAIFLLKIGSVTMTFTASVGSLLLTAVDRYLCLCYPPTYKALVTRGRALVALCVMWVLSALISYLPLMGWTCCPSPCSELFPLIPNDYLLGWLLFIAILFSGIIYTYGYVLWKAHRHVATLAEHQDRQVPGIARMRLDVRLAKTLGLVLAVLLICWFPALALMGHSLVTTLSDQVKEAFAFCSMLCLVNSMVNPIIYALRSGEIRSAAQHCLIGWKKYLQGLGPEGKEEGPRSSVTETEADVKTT
T5 sequence (P21554 whole entry): as the sequence (P21554 whole entry) above
T4 sequence (P34972 whole entry): as the sequence (P34972 whole entry) above

B1: hCB2-1/622: murine IgG3 monoclonal anti-human CB2 antibody, VH SEQ ID NO: 1, VL SEQ ID NO: 2, HC SEQ ID NO: 3, LC SEQ ID NO: 4 (antibody)
heavy: EVQLQQSGPELVKPGASVKISCKTSGYTFTEYTMHWVRQSHGKSLEWIGGIDRYNGDTYYNQKFKDKATLTVDRSSSTAYMELRSLTSEDSAVYFCARNGAMDYWGQGISVTVSSATTTAPSVYPLVPGCSDTSGSSVTLGCLVKGYFPEPVTVKWNYGALSSGVRTVSSVLQSGFYSLSSLVTVPSSTWPSQTVICNVAHPASKTELIKRIEPRIPKPSTPPGSSCPPGNILGGPSVFIFPPKPKDALMISLTPKVTCVVVDVSEDDPDVHVSWFVDNKEVHTAWTQPREAQYNSTFRVVSALPIQHQDWMRGKEFKCKVNNKALPAPIERTISKPKGRAQTPQVYTIPPPREQMSKKKVSLTCLVTNFFSEAISVEWERNGELEQDYKNTPPILDSDGTYFLYSKLTVDTDSWLQGEIFTCSVVHEALHNHHTQKNLSRSPGK
light: DVVMTQTPLSLPVSLGDQASISCRSSQSLVHSNGNTYLHWFLQKPGQSPKLLIYKVSIRFSGVPDRFSGSGSGTDFTLKISRVEAEDLGVYFCSQSTHVPPLTFGAGTKLELKRADAAPTVSIFPPSSEQLTSGGASVVCFLNNFYPKDINVKWKIDGSERQNGVLNSWTDQDSKDSTYSMSSTLTLTKDEYERHNSYTCEATHKTSTSPIVKSFNRNEC
- immunofluorescence signal intensity (CHO-A2 mCB2; CHO-A2 mCB2 cells): −
- immunofluorescence staining (CHO-A2 mCB2; cells expressing mouse CB2): no staining
- immunofluorescence signal intensity (CHODukx CRE hCB1 Cl.20; CHODukx CRE hCB1 Cl.20 cells): −
- immunofluorescence staining (CHODukx CRE hCB1 Cl.20; cells expressing human CB1): no staining
- immunofluorescence signal intensity (CHODukx CRE hCB2 Cl.90; CHODukx CRE hCB2 Cl.90 cells): +++
- immunofluorescence staining (CHODukx CRE hCB2 Cl.90; the two cell lines expressing human CB2): high fluorescent signal intensities
- median fluorescence intensity (MFI) signal (CHO K1 h CB2 cell line): dose related increase
- median fluorescence intensity (MFI) signal (CHO K1 hCB1R): remained at background levels
- median fluorescence intensity (MFI) signal [1]: remained at background levels
- stability of antibody working dilution [2]: 2 h
